Values of other authors as cited in article PMC4237619.
Where two headings read alike, the source gives them in different places.

Legend:
VEGF (Homo sapiens) [1] = molecular target: VEGF (Homo sapiens) (UniProt P15692)
VEGF (Homo sapiens) [2] = molecular target: VEGF (Homo sapiens) (UniProt P15692); remark: listed apart in the source
VEGF (Homo sapiens) [3] = molecular target: VEGF (Homo sapiens) (UniProt P15692); remark: listed apart in the source

Sequence of UniProt P15692 (P15692 whole entry): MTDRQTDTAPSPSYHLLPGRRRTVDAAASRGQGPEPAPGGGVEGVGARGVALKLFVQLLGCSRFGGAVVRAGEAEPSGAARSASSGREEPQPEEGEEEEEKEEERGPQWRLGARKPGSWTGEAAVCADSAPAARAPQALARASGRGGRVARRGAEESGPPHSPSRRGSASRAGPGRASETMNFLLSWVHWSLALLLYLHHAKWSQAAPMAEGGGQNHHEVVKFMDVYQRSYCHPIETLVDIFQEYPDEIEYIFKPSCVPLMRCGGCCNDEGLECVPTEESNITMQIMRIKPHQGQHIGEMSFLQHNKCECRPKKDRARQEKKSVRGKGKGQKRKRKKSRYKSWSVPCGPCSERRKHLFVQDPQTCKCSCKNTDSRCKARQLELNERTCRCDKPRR

For ATWLPPR peptide, the Kd (VEGF (Homo sapiens) [1]) is listed as 0.33 nM.

For NH2-GGGG-SY(SO3)DY(SO3)GGGG-OH peptide, the Kd (VEGF (Homo sapiens) [2]) is listed as 910 nM.

For SY(SO3)DY(SO3)G peptide, the Kd (VEGF (Homo sapiens) [3]) is given as 3.1 µM.
